These results are taken from article PMC5435981.

The data set addresses APOBEC3A E72A (A3A-E72A) (Homo sapiens, UniProt P31941 1-199, E72A). Nature of the data set: ITC. On the technique in general: ITC needs no label: the signal is the heat of the interaction.

In general, Kd refers to the equilibrium constant for the complex coming apart. Low readings indicate a tighter complex, high ones a looser complex.

Chain of APOBEC3A E72A (A3A-E72A) (P31941 whole entry E72A): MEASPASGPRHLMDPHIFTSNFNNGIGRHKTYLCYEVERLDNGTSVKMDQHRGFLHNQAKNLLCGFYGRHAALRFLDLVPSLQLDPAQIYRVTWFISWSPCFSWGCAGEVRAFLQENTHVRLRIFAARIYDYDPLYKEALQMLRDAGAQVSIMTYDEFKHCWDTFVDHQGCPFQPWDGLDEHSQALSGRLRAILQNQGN

In the case of AATTCAAAA (ssDNA) [A2TTCA4], the Kd came out at 17 ± 6 µM.
